Experimental data reported in PMC547899.

Molecular target: SMC3-474/702 hinge domain (GAL4:SMC3 fusion in pBIND) (UniProt Q9CW03)
Test: two-hybrid; mammalian two-hybrid (Promega Checkmate) in 293 cells: SMC3-474/702 in pBIND, SMC1-474/663 in pACT, pG5/luc reporter, with Hinderin-V5 expression vector (0.3 or 1 ug/ml) or empty pcDNA3.1; luciferase after 48 h, corrected by Renilla

UniProt Q9CW03, sequence (Q9CW03 474-702): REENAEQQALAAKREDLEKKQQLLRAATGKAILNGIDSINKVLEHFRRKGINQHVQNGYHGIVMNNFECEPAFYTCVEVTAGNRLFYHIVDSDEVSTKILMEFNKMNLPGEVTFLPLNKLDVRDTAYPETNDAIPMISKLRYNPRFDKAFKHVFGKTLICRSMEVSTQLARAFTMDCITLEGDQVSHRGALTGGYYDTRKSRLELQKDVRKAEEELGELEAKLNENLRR

Hinderin-V5 (complete Hinderin coding region with V5 tag) (from UniProt Q86T90 1-577) (natural protein)
SMC1/SMC3 interaction (luciferase activity) in cells overexpressing Hinderin, percent: 34%
